Data as given in the supplement of paper PMC9732359.
± gives the uncertainty stated by the source.

Assay: protein stability index of a GFP-peptide fusion (yeast GPS) (PSI 1-4); higher = more stable; sorted into four equal gates, so the index is relative within each strain
Conditions: pdr5∆
How it was run: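 Sequencing reads from sorted gates were used to score each peptide. The library consisted of tiled 17-residue yeast protein peptides fused downstream of GFP on a Cherry-expressing plasmid, pooled and carried in yeast. Mid-log cultures in leucine-free medium were split into four equal gates by GFP/Cherry ratio, and each gate's plasmids were PCR-amplified and Illumina-sequenced. The protein stability index adds up, over all gates, the read frequency multiplied by the gate number.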

In order of falling protein stability index:
1. SNDPDVNNTRRRVYNRV [BRN1]  3.52 ± 0.19
2. SKDELREKLAEVYKAEK [RPS24A]  3.48 ± 0.15
3. SKSLQESGDTQEEDEEE [RPC82]  3.48 ± 0.15
4. SPEESKARSPGIAKPNA [SIR4]  3.42 ± 0.09
5. SIGSIYQWNLDGLQQLD [RPN1]  3.4 ± 0.068
6. SKFNNADDVFTGTGLQD [RPC31]  3.38 ± 0.091
7. SKVGSADTGRDDTKETV [RPN11]  3.36 ± 0.089
8. SLTQSVCDLALRFGEGA [PUP2]  3.34 ± 0.21
9. SKLDYIFKDKEKLVSDL [SMC1]  3.24 ± 0.085
10. SIRRQDYINELSNSNRF [REC8]  3.21 ± 0.12
11. SKIIVFPRDGKAPEAEQ [RPL13B]  3.2 ± 0.08
12. SNTIDELSTDIILKTRQ [SRB7]  3.19 ± 0.083
13. SIHVNRVERSSRSTDNF [RRI1]  3.18 ± 0.069
14. SKNELKKAFTSYDRTLL [RPS16A]  3.14 ± 0.057
15. SKQTPQPKAPRAPKVIH [ISW2]  3.14 ± 0.054
16. SKTSENKVSNTVSPTQD [SIR2]  3.12 ± 0.066
17. SLNEKNALHTERLHELK [SMC1]  3.11 ± 0.065
18. SNNTAATADTTHLHEAL [NUT1]  3.07 ± 0.084
19. SKIFRFQNSKSASLFKQ [RPL24A]  3.04 ± 0.085
20. SLQYIERQQDELENFLD [YJL041W/NSP1]  3.04 ± 0.14
21. SHPEKRMIPPRMVRSIM [SSN3]  3.01 ± 0.075
22. SLFSHRKHTRGDVSSGL [BRN1]  3.01 ± 0.17
23. SNININVNNNNIGQQQV [SWI1]  3.01 ± 0.2
24. SMNATMRNFSKQNQDSK [YDL088C/ASM4]  2.99 ± 0.24
25. SNDERIVKRLYEYGAVS [BRR2]  2.97 ± 0.07
26. SNKILVYESEMEQCKQR [YIL149C/MLP2]  2.95 ± 0.17
27. SNVLDGNKNQFEPSISR [LRP1]  2.95 ± 0.074
28. SKQNGSKFHFSWNESED [PRP28]  2.94 ± 0.064
29. SNDVLKPETPKGPIIIS [SIR2]  2.92 ± 0.077
30. SPPIIDLFSNNNYNSRI [MED1]  2.92 ± 0.076
31. SLRRQVKKLEIQQHARY [RPL43A]  2.89 ± 0.1
32. SKLKEEEAALLIKERQE [ESC2]  2.88 ± 0.065
33. SIESKLEEHKNHLDELQ [SMC1]  2.86 ± 0.13
34. SNSSSSPPIIDLFSNNN [MED1]  2.82 ± 0.05
35. SKSKQSFTQGELNDLKW [YMR129W/POM152]  2.81 ± 0.13
36. SLHRQQQQQQQQVPPLP [DLS1]  2.81 ± 0.06
37. SNETIGEIQLLFQRQKL [IRR1]  2.8 ± 0.17
38. SNTSTSKMLDAASSQVS [SNF12]  2.8 ± 0.042
39. SMLFKTSQKMTSTVNRL [MCD1]  2.77 ± 0.15
40. SIDSTSRIELELKNIGL [ECM29]  2.75 ± 0.045
41. SIYKYIHLNELLTNDES [SNF12]  2.71 ± 0.053
42. SLTEKFSQTVADNNDLQ [ECM29]  2.71 ± 0.056
43. SLIIDQQENSKSGKRKP [RPC31]  2.7 ± 0.1
44. SNLKISLVKYPELLDSL [SWI1]  2.69 ± 0.058
45. SIEVQSLPEFFTNRIPS [SWI3]  2.66 ± 0.048
46. SMVYSNVGELIEKNVME [RRP4]  2.66 ± 0.053
47. SPLNTTTKILGDKILGN [YML103C/NUP188]  2.63 ± 0.049
48. SKLRNNIRSQLLSENRS [SRP54]  2.58 ± 0.094
49. SKGYVKTQFSWQYYYYT [RPS10A]  2.54 ± 0.06
50. SKNMSKSPSLTAQKYPI [YMR153W/NUP53]  2.46 ± 0.044
51. SMFLRIDYSNSQIRLYA [RGR1]  2.44 ± 0.066
52. SLPRFSKPVLIVGQKNL [DIS3]  2.42 ± 0.074
53. SINISCVQLIKCLVEKS [SWI1]  2.41 ± 0.055
54. SNILLNSLTKYPDLKAF [MED1]  2.41 ± 0.085
55. SIRLKVPPTIAQFQYTL [RPL8A]  2.36 ± 0.04
56. SKKDPRILKNVSPNDNN [YMR153W/NUP53]  2.36 ± 0.045
57. SKVVIDSIIDNIVKLCF [IRR1]  2.32 ± 0.034
58. SLKGLQSKLKDVVEYLD [RPN8]  2.27 ± 0.055
59. SKRRITEELSITGEKLD [SMC1]  2.22 ± 0.072
60. SILPTRDDLFVRNLQGI [NUT1]  2.19 ± 0.11
61. SLFHIVVDTEETATLIM [SMC3]  2.17 ± 0.15
62. SNGEFIPHIFYSLHQIR [CSE2]  2.1 ± 0.054
63. SLQQMQHLQQLKMQQQQ [GAL11]  2.09 ± 0.06
64. SLEDKILRMGAFRTIES [RRI1]  2.04 ± 0.2
65. SLNTKKNEKLILEESLN [SMC3]  2 ± 0.074
66. SNDRVNPLIELTPIQKK [ITC1]  1.99 ± 0.13
67. SKEDTLRLCLDIVPYFL [RPN1]  1.92 ± 0.033
68. SNKPCMGIVQDTLCGIR [RPO21]  1.8 ± 0.067
69. SLDFLNQSFIQQKANLL [COR1]  1.77 ± 0.13
70. SPAVKKLLQLAGVEDVY [RPS2]  1.76 ± 0.14
71. SLGFNEVFSRPEWMILT [RPO21]  1.74 ± 0.1
72. SKLMPVLKSSVYEYVIA [RPC82]  1.57 ± 0.059
73. SKEGQYKAKIKELENNL [YIL149C/MLP2]  1.49 ± 0.053
74. SKLKLKNLLRKNLSIDE [ECM29]  1.47 ± 0.054
75. SLYIFFTTLLESKQDGL [YML103C/NUP188]  1.42 ± 0.085
76. SLHILMIFWNDICQIDT [SRB8]  1.33 ± 0.032
77. SLIKETNQLVLLQKMLN [YML103C/NUP188]  1.29 ± 0.094
